Source: patent publication US20090280480A1

Key:
[1] = molecular target: NM fibers (amyloid fibers assembled from Sup35 NM; also used sonicated as seed) (Saccharomyces cerevisiae) (UniProt P05453); assay: seeded fibre elongation; sedimentation of soluble NM plus acrylodan wavelength-shift assay, Lineweaver-Burk plot
[2] = molecular target: NM fibers (amyloid fibers assembled from Sup35 NM; also used sonicated as seed) (Saccharomyces cerevisiae) (UniProt P05453); assay: seeded fibre elongation; sedimentation of soluble NM plus acrylodan wavelength-shift assay, Lineweaver-Burk plot (Michaelis-Menten model of soluble NM binding to seed and converting)

NM fibers (amyloid fibers assembled from Sup35 NM; also used sonicated as seed) (Saccharomyces cerevisiae), sequence (P05453 1-253): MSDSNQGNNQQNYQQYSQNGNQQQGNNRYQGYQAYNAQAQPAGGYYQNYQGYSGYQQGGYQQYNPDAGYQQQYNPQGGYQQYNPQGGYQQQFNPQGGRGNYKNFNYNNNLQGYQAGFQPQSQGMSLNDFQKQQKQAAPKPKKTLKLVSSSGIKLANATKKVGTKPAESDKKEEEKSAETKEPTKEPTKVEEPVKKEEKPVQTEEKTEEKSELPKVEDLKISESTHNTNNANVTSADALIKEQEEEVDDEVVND

NM^T158C-acrylodan (soluble) (from UniProt P05453 1-253) (other; other documents disagree on this pair)
kconf/Km (conformational conversion efficiency) [1]: 42000 M⁻¹ s⁻¹
Km [2]: 0.12 µM
